According to PMC6241121, “hnRNPA2 mediated acetylation reduces telomere length in response to mitochondrial dysfunction”:

Target: hnRNPA2 WT (human, UniProt P22626-2 1-341)
Assay: EMSA; not given in the material
Details: protein: recombinant; tags: N-terminal 6xHis (pET28a)

Chain of hnRNPA2 WT (P22626 other isoform, or with tags, fused parts or gaps): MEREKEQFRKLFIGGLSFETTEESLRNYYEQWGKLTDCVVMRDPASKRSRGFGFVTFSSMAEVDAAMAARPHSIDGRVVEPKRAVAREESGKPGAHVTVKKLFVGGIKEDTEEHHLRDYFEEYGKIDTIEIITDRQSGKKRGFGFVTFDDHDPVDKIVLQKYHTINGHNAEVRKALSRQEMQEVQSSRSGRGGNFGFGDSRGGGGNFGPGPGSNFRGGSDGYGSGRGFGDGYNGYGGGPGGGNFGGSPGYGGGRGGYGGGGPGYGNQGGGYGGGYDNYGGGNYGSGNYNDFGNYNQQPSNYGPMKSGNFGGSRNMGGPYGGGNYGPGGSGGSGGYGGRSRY

TTAGGGTTAGGGTTAGGGTTAGGGTTAGGG (ssDNA) [single-stranded telomeric DNA probe]
binding result: binds
